Experiment [1] concerns the target T1, G protein of RSV A/A2 (virus, ATCC Cat. No. VR-1540) (Respiratory syncytial virus A/A2, UniProt P03423 1-298).
T1 sequence: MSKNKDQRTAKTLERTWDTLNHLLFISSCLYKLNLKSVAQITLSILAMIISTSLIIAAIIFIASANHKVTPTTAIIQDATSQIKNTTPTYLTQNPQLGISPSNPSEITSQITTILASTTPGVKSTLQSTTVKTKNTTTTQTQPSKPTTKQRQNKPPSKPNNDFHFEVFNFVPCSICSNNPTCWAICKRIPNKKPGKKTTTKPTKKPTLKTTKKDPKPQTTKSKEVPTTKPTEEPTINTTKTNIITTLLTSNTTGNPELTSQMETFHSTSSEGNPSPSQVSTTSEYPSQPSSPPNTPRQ
Description: cell-based or functional assay.

The target of experiment [2] is T2, Recombinant RSV attachment protein (G protein) corresponding to RSV B/B1 (Respiratory syncytial virus B/B1, UniProt O36633 65-299).
T2 sequence: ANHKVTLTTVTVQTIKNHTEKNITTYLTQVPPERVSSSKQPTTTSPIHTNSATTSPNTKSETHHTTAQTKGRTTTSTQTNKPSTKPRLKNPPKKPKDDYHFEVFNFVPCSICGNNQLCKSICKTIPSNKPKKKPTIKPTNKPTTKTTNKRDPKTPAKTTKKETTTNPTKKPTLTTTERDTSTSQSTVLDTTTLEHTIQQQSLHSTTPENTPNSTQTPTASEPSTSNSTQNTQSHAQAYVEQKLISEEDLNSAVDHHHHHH
The experiment in a line: ELISA, coated recombinant protein (Example 6).

In experiment [3] the target is T3, Recombinant RSV attachment protein (G protein) corresponding to RSV A/Long (Respiratory syncytial virus A/Long, UniProt P20895 65-298).
T3 construct: also called RSV Ga; Ga
T3 sequence: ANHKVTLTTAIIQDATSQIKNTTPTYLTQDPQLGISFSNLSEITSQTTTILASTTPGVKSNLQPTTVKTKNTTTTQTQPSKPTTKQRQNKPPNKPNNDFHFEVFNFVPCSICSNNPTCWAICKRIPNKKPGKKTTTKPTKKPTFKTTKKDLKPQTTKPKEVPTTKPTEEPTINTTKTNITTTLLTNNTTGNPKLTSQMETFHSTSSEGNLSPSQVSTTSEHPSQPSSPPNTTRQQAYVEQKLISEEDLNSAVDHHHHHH
Description: ELISA, coated recombinant protein (Example 6). (In general: In an ELISA, binding on a coated surface is turned into a signal by an enzyme label.)

The target in experiment [4] is T4, G protein of RSV B/18537 (virus, ATCC Cat. No. VR-1580) (Respiratory syncytial virus B/18537, UniProt P20896 1-292).
T4 sequence: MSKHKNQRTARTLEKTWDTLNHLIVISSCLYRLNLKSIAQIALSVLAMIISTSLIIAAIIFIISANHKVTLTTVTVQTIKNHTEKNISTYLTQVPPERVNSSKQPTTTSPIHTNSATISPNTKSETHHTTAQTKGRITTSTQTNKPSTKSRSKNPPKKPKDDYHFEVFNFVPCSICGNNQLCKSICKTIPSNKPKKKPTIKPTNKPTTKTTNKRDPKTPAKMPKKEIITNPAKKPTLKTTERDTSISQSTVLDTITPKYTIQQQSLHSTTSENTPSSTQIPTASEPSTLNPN
The experiment in a line: cell-based or functional assay.

In experiment [5] the target is T5, G protein of RSV A/Long (virus, ATCC Cat. No. VR-26) (Respiratory syncytial virus A/Long, UniProt P20895 1-298).
T5 sequence (looked up): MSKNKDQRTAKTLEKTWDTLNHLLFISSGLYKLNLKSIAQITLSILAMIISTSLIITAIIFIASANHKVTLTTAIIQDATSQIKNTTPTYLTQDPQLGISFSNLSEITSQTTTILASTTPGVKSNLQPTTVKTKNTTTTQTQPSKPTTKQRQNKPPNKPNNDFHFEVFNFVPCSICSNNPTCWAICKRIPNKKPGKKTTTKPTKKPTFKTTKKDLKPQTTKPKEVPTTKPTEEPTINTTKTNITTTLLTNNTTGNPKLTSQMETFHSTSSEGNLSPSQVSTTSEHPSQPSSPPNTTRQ
The experiment in a line: cell-based or functional assay.

B1: CB048.3 (antibody, V domains shown)
VH: QVQLVESGGGVVQPGRSLRLSCAASGFTFSNHGMHWVRQAPGKGLEWVAVISYDGNKKYYADSVKGRFTVSRDNSKNTLSLQMDSLRAEDTAIYYCAKTTFYFDDSNYYEYLDYWGQGTLVTVSS
VL: DIQLTQSPSFLSASVGDRVTITCRASQGIRSYLAWYQQKPGKAPKLLIYAASTLQSGVPSRFSGGGSGTEFTLTISSLQPEDSATYYCQQLNTSPPYTFGQGTKLEIK
For the molecule B1, the “Neutralization IC50 (plaque reduction assay, Vero cells)” value in experiment [1] stood at 0.0167 µg/mL. Besides, the binding result in experiment [2] and in experiment [3] was “binds” throughout.

B2: CB028.2 (antibody, V domains shown)
VH: QVQLVQSGAEVKKPGASVKVSCKASGYTFTTYGITWVRQAPGQGLEWMGWISGDSDNTNYAQNLQGRVTLTTDISTRTAYMELRSLKPDDTAMYYCARALAKWYCSSSSCFCGGGSCYSDYWGQGTLVTVSS
VL: DIQMTQSPSSLSASVGDRVTITCRASQGMSNYLNWYQQKPGKAPELLIYAASTLQSGVPSRFSGSGSGTDFTLTINSLQPEDFATYFCQQSFSTPLTFGGGTKVEIK
Take B2: the “Neutralization IC50 (plaque reduction assay, Vero cells)” value in experiment [4] worked out at 0.0196 µg/mL. Further, the binding result in experiment [2] and in experiment [3] was “binds” throughout.

B3: CB003.1 (antibody, V domains shown)
VH: QVQLVQSGPELRKPGASVTVSCKASGYTFTTYYIHWVRQAPGGGLDWMGMINTGSGVTSYAQKFQGRVAMTRDTSTSTVFMELSSLRFEDTALYYCARMYSGSWYPFDYWGQGALVTVSS
VL: EIVLTQSPGTLSLSPGERATLSCRASQNINGNYLAWYQQKPGLAPRLLIYEASSRATGIPDRFSGSGSGTDFTLTISSLEPEDFGVYYCQQYGTSPFFTFGPGTKVDIK
In the case of B3, the “Neutralization IC50 (plaque reduction assay, Vero cells)” value stood at 0.0315 µg/mL in experiment [1], 0.0246 µg/mL in experiment [4] and 0.016 µg/mL in experiment [5].

B4: CB002.1 (antibody, V domains shown)
VH: QVQLQESGPRLVKPSETLSLTCTVSGGSTSSYFWNWIRQPPGKGLEWIGYIYGSGSADYNPSLKSRVTISIDTSKTQFSLKLTSVTAADTAVYYCARSGFCTNDACYRRGSWFDPWGQGTLVTVSS
VL: DIQMTQSPSSLSASVGDRVTITCRASQSIDNYLNWYQQKPGKAPKLLIYAASSLQSGVPSRFSGSGSGTDFTLTVSSLHPEDFATYYCQQSYSTLTWTFGQGTKVEIK
notes: also called CB2.1
With B4, the “Neutralization IC50 (plaque reduction assay, Vero cells)” value in experiment [1] turned out to be 0.0355 µg/mL. For the same molecule, the binding result in experiment [2] and in experiment [3] was “binds” each time.

B5: CB058.1 (antibody, V domains shown)
VH: EVQLVESGGGLVQPGGSLRLSCVASGFTFSSYAMSWVRQAPGKGLEWVSAIRGSVDNTYYADSVKGRFTISRDNSKNTLYLQMNSLRVEDTAVYYCAKDPALYCSGETCFSDLTDWGQGTLVTVSS
VL: DIQMTQSPSSLSASVGDRVTITCRASQGINNYLAWFQQKPGKAPKSLIYAASTLPSGVPSRFSGSGSGTDFTLTISSLQPEDSATYFCQHYIRYPHTFGQGTKLEIK
B5: the “Neutralization IC50 (plaque reduction assay, Vero cells)” value in experiment [1] was determined as 0.0144 µg/mL. Besides, the binding result in experiment [2] and in experiment [3] was “binds” each time.

B6: CB010.7 (antibody, V domains shown)
VH: QVQLVESGGGVVQPGRSLRLSCAASGFTFNTHGMHWVRQAPGKGLEWVAVMSYDGTKKYHADSVKGRFTISRDNSKNTLYLQMNSLRVEDTAIYYCAKVGELRSFDWLLADGTAYYYYGMDVWGQGTTVTVSS
VL: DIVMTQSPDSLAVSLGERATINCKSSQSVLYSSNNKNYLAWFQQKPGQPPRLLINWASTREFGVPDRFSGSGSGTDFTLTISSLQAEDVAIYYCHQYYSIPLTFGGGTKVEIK
As for B6, the “Neutralization IC50 (plaque reduction assay, Vero cells)” value in experiment [1] amounted to 0.0165 µg/mL; in experiment [4] it was 0.0141 µg/mL; in experiment [5] it was 0.012 µg/mL. In addition, in experiment [2], the binding result is on record as “binds”.

Values taken from patent US20160145321A1 (CRUCELL HOLLAND B V, published 2016).
